Among the data in patent publication US20020132976A1, “Immunogenic peptides derived from prostate-specific antigen (PSA) and uses thereof” (priority 2000, published 2002) are Fluorescence Index (FI) values, retold here.

The target in test [1] is membrane-bound HLA-A0201 molecule on T2 cells (human). The experiment in a line: T2 cell HLA-A0201 stabilisation, 125.0 µM peptide, BB7.2 staining, flow cytometry. The conditions noted are these: remark: other sources report otherwise. Background: Flow cytometry measures light scatter and fluorescence of single cells or particles in a stream.
For test [2] the target is unchanged. Description: T2 cell HLA-A0201 stabilisation, 125.0 µM peptide, BB7.2 staining, flow cytometry; analysis did not include the 3 hr de-stabilization step. Conditions: remark: other sources report otherwise.

For KLQCVDLHV [CLP-316], the Fluorescence Index (FI) in test [1] is 2.7.

In the case of PLYDMSLLK [CLP-320], in test [2], the Fluorescence Index (FI) turned out to be 0.2.
